Reference: patent publication US20240270806A1

Molecular target: Human IL-12 receptor (human IL-12Rb1 and IL-12Rb2) (human) (UniProt P42701)
Sequence (Q99665 24-862, chain 2 of 2, other chains not shown): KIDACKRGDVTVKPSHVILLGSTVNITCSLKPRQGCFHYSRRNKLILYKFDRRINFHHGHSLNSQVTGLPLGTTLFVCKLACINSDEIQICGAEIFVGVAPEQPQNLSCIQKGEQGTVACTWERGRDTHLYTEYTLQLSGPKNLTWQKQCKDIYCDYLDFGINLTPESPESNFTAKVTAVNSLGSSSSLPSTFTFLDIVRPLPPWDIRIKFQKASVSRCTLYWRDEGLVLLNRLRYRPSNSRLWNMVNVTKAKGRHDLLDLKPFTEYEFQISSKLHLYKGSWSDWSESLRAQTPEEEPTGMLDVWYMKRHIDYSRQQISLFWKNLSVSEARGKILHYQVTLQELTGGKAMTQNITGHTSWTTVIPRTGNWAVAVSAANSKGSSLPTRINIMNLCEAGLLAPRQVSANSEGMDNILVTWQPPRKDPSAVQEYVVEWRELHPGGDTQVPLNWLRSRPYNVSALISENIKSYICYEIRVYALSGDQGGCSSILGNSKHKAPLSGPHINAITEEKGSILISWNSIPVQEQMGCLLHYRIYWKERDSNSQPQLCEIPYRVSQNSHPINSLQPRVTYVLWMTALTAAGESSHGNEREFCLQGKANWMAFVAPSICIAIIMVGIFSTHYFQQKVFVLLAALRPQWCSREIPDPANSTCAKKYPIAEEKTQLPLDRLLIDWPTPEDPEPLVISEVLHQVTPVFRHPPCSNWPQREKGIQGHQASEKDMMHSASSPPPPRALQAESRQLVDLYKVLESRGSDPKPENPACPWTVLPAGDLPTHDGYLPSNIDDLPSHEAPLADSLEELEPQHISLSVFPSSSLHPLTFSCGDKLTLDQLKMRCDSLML

rhIL-12, sequence (P29460 23-328 limits assumed): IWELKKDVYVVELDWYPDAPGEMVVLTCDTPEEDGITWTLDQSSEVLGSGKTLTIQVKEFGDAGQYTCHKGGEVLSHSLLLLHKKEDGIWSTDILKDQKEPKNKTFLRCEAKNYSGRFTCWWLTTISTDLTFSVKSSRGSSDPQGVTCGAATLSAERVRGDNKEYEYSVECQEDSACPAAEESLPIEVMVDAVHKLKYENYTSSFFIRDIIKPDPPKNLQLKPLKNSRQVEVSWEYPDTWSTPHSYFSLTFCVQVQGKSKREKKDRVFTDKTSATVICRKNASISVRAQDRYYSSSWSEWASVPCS
rhIL-12, sequence (P29459 23-219 limits assumed): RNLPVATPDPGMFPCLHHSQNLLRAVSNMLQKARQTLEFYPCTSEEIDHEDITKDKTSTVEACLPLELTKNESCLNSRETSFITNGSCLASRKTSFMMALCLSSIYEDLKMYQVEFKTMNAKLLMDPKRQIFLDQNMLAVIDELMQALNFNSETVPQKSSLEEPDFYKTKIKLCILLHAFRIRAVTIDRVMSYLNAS

- EC50 (read off the curve), IL-12 luciferase reporter assay (+ Protease): 0.2 nM
- EC50 (read off the curve), IL-12 luciferase reporter assay (without protease): 0.2 nM
Substance: rhIL-12 (from UniProt P29460 23-328; P29459 23-219) (ligand)
